Reference: US20020177126A1 (published 2002)
Values joined by “and” are separate entries in the source; they are usually repeats but may differ in a detail not shown here. Identical values can stand only once.

What was measured:
[1] = target: T1, F protein of wild type RSV A/Long (respiratory syncytial virus, strain …, UniProt P12568 26-574); assay: cell-based or functional assay
[2] = target: T1, F protein of wild type RSV A/Long; assay: cell-based or functional assay; remark: listed apart in the source
Bac-F = Bac-F (UniProt P03420 26-524); assay: BIAcore, Mab vs Bac-F, 1:1
[3] = target: F protein (RSV F glycoprotein immobilised on the BIAcore sensor chip) (respiratory syncytial virus (RSV), UniProt P03420 26-524); assay: BIAcore, immobilised F protein
[4] = target: T2, F protein of RSV A/Long MARM B1 (respiratory syncytial virus, strain …, UniProt P12568 26-574); assay: IFA on MARM-infected HEp-2 cells
T2 construct: whole, on cells

[5] = target: T3, F protein of RSV A/Long MARM B2 (respiratory syncytial virus, strain …, UniProt P12568 26-574); assay: IFA on MARM-infected HEp-2 cells
T3 construct: whole, on cells

[6] = target: T4, F protein of RSV A/Long MARM B3 (respiratory syncytial virus, strain …, UniProt P12568 26-574); assay: IFA on MARM-infected HEp-2 cells
T4 construct: whole, on cells

[7] = target: T5, F protein of RSV A/Long MARM B4 (respiratory syncytial virus, strain …, UniProt P12568 26-574); assay: IFA on MARM-infected HEp-2 cells
T5 construct: whole, on cells

[8] = target: T6, F protein of RSV A/Long MARM B6 (respiratory syncytial virus, strain …, UniProt P12568 26-574); assay: IFA on MARM-infected HEp-2 cells
T6 construct: whole, on cells

[9] = target: T7, F protein of RSV A/Long MARM B7 (respiratory syncytial virus, strain …, UniProt P12568 26-574); assay: IFA on MARM-infected HEp-2 cells
T7 construct: whole, on cells

[10] = target: T8, F protein of RSV A/Long MARM B8 (respiratory syncytial virus, strain …, UniProt P12568 26-574); assay: IFA on MARM-infected HEp-2 cells
T8 construct: whole, on cells

[11] = target: T9, F protein of RSV A/Long MARM B10 (respiratory syncytial virus, strain …, UniProt P12568 26-574); assay: IFA on MARM-infected HEp-2 cells
T9 construct: whole, on cells

[12] = target: T10, F protein of RSV A/Long MARM B13 (respiratory syncytial virus, strain …, UniProt P12568 26-574); assay: IFA on MARM-infected HEp-2 cells
T10 construct: whole, on cells

[13] = target: T11, F protein of RSV A/Long MARM B14 (respiratory syncytial virus, strain …, UniProt P12568 26-574); assay: IFA on MARM-infected HEp-2 cells
T11 construct: whole, on cells

[14] = target: T12, F protein of RSV A/Long MARM B15 (respiratory syncytial virus, strain …, UniProt P12568 26-574); assay: IFA on MARM-infected HEp-2 cells
T12 construct: whole, on cells

[15] = target: T13, F protein of RSV A/Long MARM #6 (selected with A4B4) (respiratory syncytial virus, strain …, UniProt P12568 26-574); assay: IFA on MARM-infected HEp-2 cells
T13 construct: whole, on cells

[16] = target: T14, F protein of RSV A/Long MARM #9 (selected with A4B4) (respiratory syncytial virus, strain …, UniProt P12568 26-574); assay: IFA on MARM-infected HEp-2 cells
T14 construct: whole, on cells

[17] = target: T15, F protein of RSV A/Long MARM #10 (selected with A4B4) (respiratory syncytial virus, strain …, UniProt P12568 26-574); assay: IFA on MARM-infected HEp-2 cells
T15 construct: whole, on cells

[18] = target: T16, F protein of RSV A/Long MARM #11 (selected with A4B4) (respiratory syncytial virus, strain …, UniProt P12568 26-574); assay: IFA on MARM-infected HEp-2 cells
T16 construct: whole, on cells

[19] = target: T17, F protein of RSV A/Long MARM B9 (respiratory syncytial virus, strain …, UniProt P12568 26-574); assay: IFA on MARM-infected HEp-2 cells
T17 construct: whole, on cells

[20] = target: T18, F protein of MARM #13 (selected with A4B4 from MARM B9) (respiratory syncytial virus, strain …, UniProt P12568 26-574); assay: IFA on MARM-infected HEp-2 cells
T18 construct: whole, on cells

B1: SYNAGIS® (antibody, V domains shown)
VH: QVTLRESGPALVKPTQTLTLTCTFSGFSLSTSGMSVGWIRQPPGKALEWLADIWWDDKKDYNPSLKSRLTISKDTSKNQVVLKVTNMDPADTATYYCARSMITNWYFDVWGAGTTVTVSS
VL: DIQMTQSPSTLSASVGDRVTITCKCQLSVGYMHWYQQKPGKAPKLLIYDTSKLASGVPSRFSGSGSGTEFTLTISSLQPDDFATYYCFQGSGYPFTFGGGTKLEIK
notes: also called SYNAGIS ®/SYNAGIS ® (HC/LC)
B1 was tested, and the “EC50, RSV (Long) microneutralization” value [1] was 3.57 nM, the “Mean IC50 (Control), RSV microneutralization” value [2] was 0.535 µg/mL and the “Mean IC50 (Curve), RSV microneutralization” value [2] was 0.453 µg/mL. The Kd (Bac-F) was 3.9 nM, the koff (Bac-F) was 0.000515 s⁻¹ and the kon (Bac-F) was 132000 M⁻¹ s⁻¹. The “number in parentheses after KD (fold vs SYNAGIS)” value (Bac-F) was 1 fold, the koff [3] was 0.000764 s⁻¹ and 0.000738 s⁻¹ and 0.000702 s⁻¹ and the kon [3] was 204000 M⁻¹ s⁻¹ and 189000 M⁻¹ s⁻¹ and 218000 M⁻¹ s⁻¹. B1: no binding (tested: 250 ng/ml) [4]; no binding (tested: 250 ng/ml) [5]; no binding (tested: 250 ng/ml) [6]. B1: no binding (tested: 250 ng/ml) [7]; no binding (tested: 250 ng/ml) [8]; no binding (tested: 250 ng/ml) [9]. B1: no binding (tested: 250 ng/ml) [10]; no binding (tested: 250 ng/ml) [11]; no binding (tested: 250 ng/ml) [12]. B1: no binding (tested: 250 ng/ml) [13]; no binding (tested: 250 ng/ml) [14]; no binding (tested: 250 ng/ml) [15]. B1: no binding (tested: 250 ng/ml) [16]; no binding (tested: 250 ng/ml) [17]; no binding (tested: 250 ng/ml) [18]. B1: no binding (tested: 250 ng/ml) [19]; no binding (tested: 250 ng/ml) [20].
